Drawing on publication PMC11369174, “Proteome-scale characterisation of motif-based interactome rewiring by disease mutations” (Molecular Systems Biology, 2024), this text covers Kd and stoichiometry N for 13 substances.

The target in one assay is FITC-3BP2. The experiment in a line: fluorescence polarisation; saturation binding: dilution series of the protein domain added to 10 nM FITC-labelled peptide; 50 mM sodium phosphate pH 7.4, 0.05% Tween (protein dialysed in 50 mM sodium phosphate with 1 mM DTT; CASK kinase domain with 100 mM NaCl in addition); quadratic fit; technical triplets.
The target in assay [1] is importin subunit α-3 (KPNA4) ARM domain. The experiment in a line: fluorescence polarisation displacement. Particulars: major pocket.
For assay [2], the target named is MAP1LC3B ATG8 domain (human) (UniProt Q9GZQ8). In words: ITC; peptide titrated in tenfold excess in 16 injections against the protein domain; 50 mM sodium phosphate pH 7.4, 1 mM DTT; iTC200; wild-type in technical duplicate, mutant in technical triplets; one line of constants for each repeat.
In assay [3] the target is MAP1LC3B ATG8 domain (human). The experiment in a line: ITC; peptide titrated in tenfold excess in 16 injections against the protein domain; 50 mM sodium phosphate buffer pH 7.4, 1 mM DTT; iTC200.
Assay [4] deals with MAP1LC3B ATG8 domain (human). In words: fluorescence polarisation; displacement: unlabelled peptide titrated onto a complex of FITC-labelled peptide (10 nM) and protein domain (1-2x KD); 50 mM sodium phosphate buffer pH 7.4 (CASK: plus 100 mM NaCl); KD calculated from IC50; technical triplets.
For the next assay, the target named is FITC-TCF3. In words: fluorescence polarisation; saturation binding: dilution series of the protein domain added to 10 nM FITC-labelled peptide; 50 mM sodium phosphate pH 7.4, 0.05% Tween (protein dialysed in 50 mM sodium phosphate with 1 mM DTT; CASK kinase domain with 100 mM NaCl in addition); quadratic fit; technical triplets.
The target in another assay is FITC-PER2. The description is as above.
For a further assay, the target named is ABL1 SH3 (human) (UniProt P00519). In words: fluorescence polarisation; displacement: unlabelled peptide titrated onto a complex of FITC-labelled peptide (10 nM) and protein domain (1-2x KD); 50 mM sodium phosphate buffer pH 7.4 (CASK: plus 100 mM NaCl); KD calculated from IC50; technical triplets.

Several values for one entry are separate records, joined by “and”; a condition that tells them apart may be missing. Equal entries are not always repeated.

Sequence of CREBBP KIX domain (Q92793 587-666): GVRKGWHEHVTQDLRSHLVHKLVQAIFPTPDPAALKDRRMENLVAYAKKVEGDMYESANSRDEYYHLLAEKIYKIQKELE
Sequence of ABL1 SH3 (human) (P00519 61-121): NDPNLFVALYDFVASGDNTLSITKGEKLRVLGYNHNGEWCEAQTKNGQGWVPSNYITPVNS
Sequence of ABL1 SH3 domain (P00519 61-121): as above

In the assay with FITC-3BP2, “ABL1 SH3 domain (from UniProt P00519 61-121) (domain or fragment)” yielded a Kd of 3.7 µM.

In assay [1], “ABRAXAS1_(349-364) wild-type peptide R361Q” came in with a dissociation constant Kd of 75 µM.

Take “BRCA2 292-307 peptide, mutant T298I/V299L/V300R”: the stoichiometry N in assay [2] was 0.744 and 0.685 and 0.649.

In the case of BRCA2 292-307 peptide, wild-type, in assay [2], the dissociation constant (Kd) was 109 µM and 63.7 µM and 18.2 µM; the stoichiometry N was 0.7 and 0.684.

Regarding “BRCA2_(292-307) T298I/V299L/V300R peptide”, the Kd in assay [3] is 2 µM; in assay [4] it was 520 nM.

In the case of BRCA2_(292-307) wild-type peptide, the results for the Kd in assay [3] and in assay [4] were 20 to 100 µM and 3120 nM, respectively.

Consider BUB1_(486-501) S492F peptide, for which the Kd in assay [4] is 1600 nM.

BUB1_(486-501) wild-type peptide: in assay [4], the Kd was 7000 nM.

For the substance “CREBBP KIX domain (from UniProt Q92793 587-666) (domain or fragment)”, the Kd with FITC-TCF3 was determined as 35 µM.

Take “Peripheral plasma membrane protein CASK (CASK) kinase domain (from UniProt O14936 12-276) (domain or fragment)”: in the assay with FITC-PER2, the Kd was 3.4 µM.

On to SQSTM1 334-349 P348L peptide, for which the Kd in assay [4] is 600 nM.

In the case of SQSTM1 334-349 wild-type peptide, the equilibrium dissociation constant (Kd) in assay [4] was 500 nM.

With TP53 64-80 P72R peptide, the Kd in the assay with ABL1 SH3 (human) is 560 µM.
